Assay [1] has as its target HLA-A*03:01. Kind of assay: IEDB peptide-MHC binding, purified MHC/competitive/fluorescence; filed as Kd, often an IC50 or EC50 that approximates it; ≥ and ≤ were set here for values at or beyond the usual limits of such assays.
Assay [2] concerns the target HLA-A*31:01. The assay is described as above.
In the next assay the target is HLA-B*27:03. The assay is described as above. The conditions noted are these: source organism: Pan troglodytes.
For assay [3], the target named is HLA-B*46:01. The assay is described as above. As to conditions: source organism: Pan troglodytes.
The target of assay [4] is HLA-B*18:01. The assay is described as above. The conditions noted are these: source organism: Pan troglodytes.
Assay [5] concerns the target HLA-B*57:01. The assay is described as above. As to conditions: source organism: Pan troglodytes.
Assay [6] deals with HLA-A*02:01. The description is as above.
For assay [7], the target named is HLA-B*15:01. The description is as above. The conditions noted are these: source organism: Pan troglodytes.
Assay [8] has as its target HLA-A*26:01. The assay is described as above.
In another assay the target is HLA-C*06:02. Description: IEDB peptide-MHC binding, purified MHC/direct/fluorescence; filed as Kd, often an IC50 or EC50 that approximates it; ≥ and ≤ were set here for values at or beyond the usual limits of such assays.
The target of a further assay is HLA-C*14:02. The assay is described as above. As to conditions: source organism: Pan troglodytes.
A further assay has as its target HLA-C*15:02. Described as above. As to conditions: source organism: Pan troglodytes.
The next assay addresses HLA-B*39:01. Description: IEDB peptide-MHC binding, purified MHC/competitive/fluorescence; filed as Kd, often an IC50 or EC50 that approximates it; ≥ and ≤ were set here for values at or beyond the usual limits of such assays. The conditions noted are these: source organism: Escherichia coli.
Another assay concerns the target HLA-C*03:03. Description: IEDB peptide-MHC binding, purified MHC/direct/fluorescence; filed as Kd, often an IC50 or EC50 that approximates it; ≥ and ≤ were set here for values at or beyond the usual limits of such assays.
A further assay addresses HLA-A*11:01. The assay is described as above.
Assay [9] addresses HLA-A*03:01. The description is as above.
Assay [10] has as its target HLA-B*18:01. The assay is described as above. The conditions noted are these: source organism: West Nile virus.
A further assay concerns the target HLA-A*01:01. The assay is described as above.
Another assay deals with HLA-B*58:01. The assay is described as above.
The next assay addresses HLA-B*08:02. Described as above. The conditions noted are these: source organism: West Nile virus strain PTRoxo.
The next assay deals with HLA-B*40:01. The description is as above.
The target in a further assay is HLA-B*44:02. The description is as above. The conditions noted are these: source organism: West Nile virus.
Assay [11] addresses HLA-B*57:01. Described as above. As to conditions: source organism: West Nile virus.
Assay [12] addresses HLA-A*31:01. The assay is described as above.
The target in the next assay is HLA-B*48:01. Described as above. The conditions noted are these: source organism: West Nile virus.
The next assay concerns the target HLA-B*27:05. The description is as above.
A further assay deals with HLA-A*02:11. Description: IEDB peptide-MHC binding, purified MHC/competitive/fluorescence; filed as Kd, often an IC50 or EC50 that approximates it; ≥ and ≤ were set here for values at or beyond the usual limits of such assays. As to conditions: source organism: Escherichia coli.
In the next assay the target is HLA-A*02:12. Described as above. As to conditions: source organism: Escherichia coli.
The next assay addresses HLA-A*02:03. Described as above. As to conditions: source organism: Escherichia coli.
Another assay has as its target HLA-A*02:06. The description is as above. The conditions noted are these: source organism: Escherichia coli.
The target of a further assay is HLA-A*24:03. Kind of assay: IEDB peptide-MHC binding, purified MHC/direct/fluorescence; filed as Kd, often an IC50 or EC50 that approximates it; ≥ and ≤ were set here for values at or beyond the usual limits of such assays.
In another assay the target is HLA-A*69:01. The assay is described as above. As to conditions: source organism: Escherichia coli.
Another assay concerns the target HLA-B*07:02. Described as above. As to conditions: source organism: Escherichia coli.
For another assay, the target named is HLA-B*08:01. The assay is described as above. As to conditions: source organism: Escherichia coli.
The target of assay [13] is HLA-A*02:01. The assay is described as above. The conditions noted are these: source organism: Escherichia coli.
Assay [14] deals with HLA-B*15:01. Described as above.
In assay [15] the target is HLA-A*26:01. Described as above. As to conditions: source organism: Escherichia coli.
Assay [16] deals with HLA-B*46:01. Described as above. The conditions noted are these: source organism: Yellow fever virus.
A further assay has as its target HLA-B*35:01. The assay is described as above. As to conditions: source organism: Yellow fever virus.
In another assay the target is HLA-B*51:01. The description is as above. The conditions noted are these: source organism: Yellow fever virus.
Where [17] appears, read: source organism: Escherichia coli E22.
Where [18] appears, read: source organism: Pan troglodytes.
Where [19] appears, read: source organism: Escherichia coli.
[20] abbreviates: source organism: West Nile virus.
Where [21] appears, read: source organism: Yellow fever virus.
Where [22] appears, read: source organism: Vaccinia virus WR.
Where [23] appears, read: source organism: Mammarenavirus juninense.

A value given as a limit tells only on which side of the number the result lay.

Here are results for eleven sequences from the Immune Epitope Database (IEDB).

In general, Kd refers to the constant that tells how readily two partners part at equilibrium.

In the case of MFIIKYFKK, the Kd in the assay with HLA-A*03:01 [1] (setting [17]) is ≥ 20000 nM; with HLA-A*31:01 [2] (setting [17]), 246 nM.

For YYFSYPLFV, the Kd was ≥ 20000 nM with HLA-B*27:03; ≥ 20000 nM with HLA-B*46:01 [3]; ≥ 20000 nM with HLA-A*03:01 [1] (setting [18]); ≥ 20000 nM in the assay with HLA-B*18:01 [4]; ≥ 20000 nM with HLA-B*57:01 [5]; 130 nM in the assay with HLA-A*02:01 [6] (setting [18]). The Kd with HLA-B*15:01 [7] is ≥ 20000 nM; with HLA-A*26:01 [8] (setting [18]) it was ≥ 20000 nM; in the assay with HLA-C*06:02 (setting [18]), 6 nM; with HLA-C*14:02, ≤ 1 nM; with HLA-C*15:02 it was 771 nM.

YIVGYYSAL: the Kd with HLA-B*39:01 is 87.1 nM; with HLA-A*02:01 [6] (setting [19]), 1.7 nM; with HLA-A*26:01 [8] (setting [19]), 232 nM; with HLA-C*03:03 (source organism: Escherichia coli B171), ≤ 1 nM.

For ILRNPGYAL, the Kd with HLA-A*11:01 (setting [20]), with HLA-A*03:01 [9] (setting [20]), in the assay with HLA-B*18:01 [10], with HLA-A*01:01 (setting [20]), in the assay with HLA-B*58:01 (setting [20]) and in the assay with HLA-B*08:02 was ≥ 20000 nM each time. Further, the Kd with HLA-B*40:01 (setting [20]) is ≥ 20000 nM; with HLA-B*44:02, ≥ 20000 nM; in the assay with HLA-B*57:01 [11], ≥ 20000 nM; with HLA-A*31:01 [12] (setting [20]), ≥ 20000 nM; with HLA-C*03:03 (setting [20]), 157 nM; in the assay with HLA-B*48:01, ≥ 20000 nM. Moreover, the Kd with HLA-B*27:05 (setting [20]) was ≥ 20000 nM.

Turning to LMQWWSDYV, the Kd in the assay with HLA-A*02:11 is ≤ 0.1 nM; in the assay with HLA-A*02:12, ≤ 0.1 nM; with HLA-A*02:03, ≤ 0.1 nM; in the assay with HLA-A*02:06 it was 2.85 nM; in the assay with HLA-A*11:01 (setting [19]), ≥ 20000 nM; with HLA-A*03:01 [9] (setting [19]), ≥ 20000 nM. Also, the Kd was ≥ 20000 nM with HLA-A*01:01 (setting [19]); ≥ 20000 nM in the assay with HLA-B*58:01 (setting [19]); ≥ 20000 nM with HLA-A*24:03 (setting [19]); 4.76 nM with HLA-A*69:01; ≥ 20000 nM with HLA-B*40:01 (setting [19]); ≥ 20000 nM with HLA-B*07:02. Further, the Kd in the assay with HLA-B*08:01 was ≥ 20000 nM; in the assay with HLA-A*02:01 [13], 5.74 nM; with HLA-A*31:01 [12] (setting [19]), 562 nM; with HLA-B*15:01 [14] (setting [19]) it was 234 nM; with HLA-B*27:05 (setting [19]), ≥ 20000 nM; with HLA-A*26:01 [15], 343 nM.

LYIEILRLL: the Kd with HLA-C*06:02 (source organism: Mycobacterium tuberculosis C) was determined as 44 nM; with HLA-A*24:03 (source organism: Mycobacterium avium 104), 7 nM.

With RSHAAIGAY, the Kd in the assay with HLA-A*31:01 [2] (setting [21]) is ≥ 20000 nM; with HLA-A*11:01 (setting [21]), ≥ 20000 nM; with HLA-B*46:01 [16] it was ≥ 20000 nM; in the assay with HLA-B*15:01 [14] (setting [21]) it was 87 nM.

Regarding GLNDYLHSV, the results for the Kd with HLA-A*02:01 [6] (setting [22]) and in the assay with HLA-C*03:03 (setting [22]) were 1.6 nM and ≥ 20000 nM, respectively.

Consider KLFDLHGRR, for which the Kd worked out at 11.1 nM in the assay with HLA-A*31:01 [2] (setting [23]) and 241 nM with HLA-A*03:01 [9] (setting [23]).

As to KVLCPYMPK, the Kd was found to be 60.5 nM with HLA-A*31:01 [2] (source organism: Japanese encephalitis virus), 3.7 nM in the assay with HLA-A*11:01 (setting [20]) and 562 nM with HLA-A*03:01 [9] (setting [20]).

Regarding AATIRVLAL, the Kd is ≥ 20000 nM in the assay with HLA-B*35:01, 9 nM with HLA-C*03:03 (setting [21]) and ≥ 20000 nM with HLA-B*51:01.
